From patent publication US20190040131A1 (published 2019)

Key:
[1] = target: T1, human CD33 (human, UniProt P20138 18-259, limits assumed); assay: BLI (ForteBio), CD33 on tip, Fab 100 nM
T1 construct: Human CD33 immobilized on the BLI sensor tip or the BIAcore C1 chip; also called Siglec-3
Experimental: (§1) The affinities (KD) of the humanized antibodies for human CD33 were measured for each antibody by BioLayer Interferometry in a ForteBio assay according to standard techniques (Estep et al. (2013) MAbs 5(2): 270-8). […] The assay was carried out at room temperature.
(§2) The affinities of AB-H14 and its affinity-matured variants (Table 15) and AB-H63 and its affinity-matured variants (Table 16), for human CD33 were measured by Fortebio assay according to the method described in Example 1 above.

[2] = target: T1, human CD33; assay: BLI (ForteBio), Fab; column looks row-shifted against KD
Experimental: as §1, §2

T1 sequence (P20138 18-259 limits assumed): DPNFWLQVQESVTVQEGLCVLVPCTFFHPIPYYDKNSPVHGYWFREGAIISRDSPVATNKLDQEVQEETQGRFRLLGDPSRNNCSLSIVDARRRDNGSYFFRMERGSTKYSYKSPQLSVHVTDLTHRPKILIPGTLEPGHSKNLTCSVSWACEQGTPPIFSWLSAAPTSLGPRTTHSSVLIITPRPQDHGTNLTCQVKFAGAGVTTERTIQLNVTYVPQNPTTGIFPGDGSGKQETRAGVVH

Binder | Kd [1] [pM] | koff [1] [s⁻¹] | koff [2] [s⁻¹] | kon [2] [M⁻¹ s⁻¹]
AB-14.1 (antibody, V domains shown) VH: QVQLVQSGAEVKKPGASVKVSCKASGATFTDYNFHWVRQAPGQGLEWIGFIYPSNGITGYAQDFQGRVTMTVDTSTSTVYMELSSLRSEDTAVYYCARSDVDYFDYWGQGTLVTVSS VL: DIQMTQSPSSLSASVGDRVTITCRASQSVSTSTYSYMHWYQQKPGKAPKLLIKYASNLESGVPSRFSGSGSGTDFTLTISSLQPEDFATYYCQHSWEIPLTFGQGTKLEIK | 299 | 0.0002 |  | 
AB-63.4 (antibody, V domains shown) VH: QVQLVQSGAEVKKPGASVKVSCKASGYTFTDYNYHWVRQAPGQGLEWIGFIYPSNGITGYAQKFQGRVTMTVDTSTSTVYMELSSLRSEDTAVYYCARSTVDYFDYWGQGTLVTVSS VL: DIVLTQSPDSLAVSLGERATINCRASQSVSTSTYSYMHWYQQKPGQPPKLLIKYASNLESGVPDRFSGSGSGTDFTLTISSLQAEDVAVYYCQHSWEIPLTFGQGTKLEIK |  |  | 0.00112 | 602000
AB-63.5 (antibody, V domains shown) VH: QVQLVQSGAEVKKPGASVKVSCKASGYTFTDYNNHWVRQAPGQGLEWIGFIYPSNGITGYAQKFQGRVTMTVDTSTSTVYMELSSLRSEDTAVYYCARSDVDYFDYWGQGTLVTVSS VL: DIVLTQSPDSLAVSLGERATINCRASQSVSTSTYSYMHWYQQKPGQPPKLLIKYASNLESGVPDRFSGSGSGTDFTLTISSLQAEDVAVYYCQHSWEIPLTFGQGTKLEIK |  |  | 0.00155 | 776000
AB-63.6 (antibody, V domains shown) VH: QVQLVQSGAEVKKPGASVKVSCKASGYTFTDYNLHWVRQAPGQGLEWIGFIYPSNGITGYAQKFQGRVTMTVDTSTSTVYMELSSLRSEDTAVYYCARSTVDYFDYWGQGTLVTVSS VL: DIVLTQSPDSLAVSLGERATINCRASQDVSTSTYSYMHWYQQKPGQPPKLLIKYASNLESGVPDRFSGSGSGTDFTLTISSLQAEDVAVYYCQHSWEIPLTFGQGTKLEIK |  |  | 0.00176 | 679000
AB-63.7 (antibody, V domains shown) VH: QVQLVQSGAEVKKPGASVKVSCKASGYTFTDYNLHWVRQAPGQGLEWIGFIYPSNGITGYAQKFQGRVTMTVDTSTSTVYMELSSLRSEDTAVYYCARSTVDYFDYWGQGTLVTVSS VL: DIVLTQSPDSLAVSLGERATINCRASQDVSTSTYSYMHWYQQKPGQPPKLLIKYAFNLESGVPDRFSGSGSGTDFTLTISSLQAEDVAVYYCQHSWEIPLEFGQGTKLEIK |  |  | 0.000581 | 809000
AB-63.8 (antibody, V domains shown) VH: QVQLVQSGAEVKKPGSSVKVSCKASGVTFTDYNYHWVRQAPGQGLEWIGFIYPSNGITGYAQKFQDRVTMTVDTSTSTVYMELSSLRSEDTAVYYCARSTVDYFDYWGQGTLVTVSS VL: DIVLTQSPDSLAVSLGERATINCRASQDVSTSTYSYMHWYQQKPGQPPKLLIKYASNLESGVPDRFSGSGSGTDFTLTISSLQAEDVAVYYCQHSWEIPLTFGQGTKLEIK |  |  | 0.000524 | 847000
AB-63.9 (antibody, V domains shown) VH: QVQLVQSGAEVKKPGASVKVSCKASGYAFTDYNLHWVRQAPGQGLEWIGFIYPSNGITGYAQKFQGRVTMTVDTSTSTVYMELSSLRSEDTAVYYCARSDVDYFDYWGQGTLVTVSS VL: DIVLTQSPDSLAVSLGERATINCRASQDVSTSTYSYMHWYQQKPGQPPKLLIKYASYLESGVPDRFSGSGSGTDFTLTISSLQAEDVAVYYCEHSWEIPLTFGQGTKLEIK |  |  |  | 658000

Other lines, results leading:

Kd [1] [pM] | koff [1] [s⁻¹] | koff [2] [s⁻¹] | kon [2] [M⁻¹ s⁻¹] | Binder
 |  | 0.000546 | 596000 | AB-63.10 (antibody, V domains shown) VH: QVQLVQSGAEVKKPGASVKVSCKASGYTETDYNLHWVRQAPGQGLEWIGFIYPSNGITGYAQKFQGRVTMTVDTSTSTVYMELSSLRSEDTAVYYCARSDVDYFDYWGQGTLVTVSS VL: DIVLTQSPDSLAVSLGERATINCRASQDVSTSTYSYMHWYQQKPGQPPKLLIKYASNLESGVPDRFSGSGSGTDFTLTISSLQAEDVAVYYCQHSWELPLTFGQGTKLEIK
 |  | 0.0002 | 913000 | AB-63.11 (antibody, V domains shown) VH: QVQLVQSGAEVKKPGASVKVSCKASGYTFTDYNFHWVRQAPGQGLEWIGFIYPANGITGYAQKDQGRVTMTVDTSTSTVYMELSSLRSEDTAVYYCARSDVDYFDYWGQGTLVTVSS VL: DIVLTQSPDSLAVSLGERATINCRASQDVSTSTYSYMHWYQQKPGQPPKLLIKYASNLESGVPDRFSGSGSGTDFTLTISSLQAEDVAVYYCQHSWEIPLTFGQGTKLEIK
 |  |  | 738000 | AB-63.12 (antibody, V domains shown) VH: QVQLVQSGAEVKKPGASVKVSCKASGYTFTDYNFHWVRQAPGQGLEWIGFIYPSNGITGYAQKFTGRVTMTVDTSTSTVYMELSSLRSEDTAVYYCARSTVDYFDDWGQGTLVTVSS VL: DIVLTQSPDSLAVSLGERATINCRASQDVSTSTYSYMHWYQQKPGQPPKLLIKYASNVESGVPDRFSGSGSGTDFTLTISSLQAEDVAVYYCQHSWAIPLTFGQGTKLEIK
 |  | 0.000336 | 721000 | AB-63.13 (antibody, V domains shown) VH: QVQLVQSGAEVKKPGASVKVSCKASGYTFTDYNLHWVRQAPGQGLEWIGFIYPSNGIRGYAQKFQGRVTMTVDTSTSTVYMELSSLRSEDTAVYYCARSDVDYFDYWGQGTLVTVSS VL: DIVLTQSPDSLAVSLGERATINCRASQSVSTSTYSYMHWYQQKPGQPPKLLIKYASNLESGVPDRFSGSGSGTDFTLTISSLQAEDVAVYYCQHSEEIPLTFGQGTKLEIK
 |  | 0.000322 | 839000 | AB-63.14 (antibody, V domains shown) VH: QVQLVQSGAEVKKPGSSVKVSCKASGYTFTDYNLHWVRQAPGQGLEWIGFIYPSNGITGYAQKFQGRVTMTVDTSTSTVYMELSSLRSEDTAVYYCARSDVDYFDYWGQGTLVTVSS VL: DIVLTQSPDSLAVSLGERATIDCKASQDVSTSTYSYMHWYQQKPGQPPKLLIKYASNLESGVPDRFSGSGSGTDFTLTISSLQAEDVAVYYCQHSWEIPLTFGQGTKLEIK
 |  | 0.0002 | 723000 | AB-63.15 (antibody, V domains shown) VH: QVQLVQSGAEVKKPGASVKVSCKASGYTFTDYNYHWVRQAPGQGLEWIGFIYPSNGITGYAQKFQGRVTMTVDTSTSTVYMELSSLRSEDTAVYYCARSDVDYFDLWGQGTLVTVSS VL: DIVLTQSPDSLAVSLGERATINCRASQDVSTSTYSYMHWYQQKPGQPPKLLIKYASNVESGVPDRFSGSGSGTDFTLTISSLQAEDVAVYYCQHSWEIPLTFGQGTKLEIE
 |  | 0.000204 | 903000 | AB-63.18 (antibody, V domains shown) VH: QVQLVQSGAEVKKPGSSVKVSCKASGYTHTDYNLHWVRQAPGQGLEWIGFIYPSNGITGYAQKFQGRVTMTVDTSTSTVYMELSSLRSEDTAVYYCARSDVDYFDYWGQGTLVTVSS VL: DIVLTQSPDSLAVSLGERATINCRASQSVSTSTYSYMHWYQQKPGQPPKLLIKYESNLESGVPDRFSGSGSGTDFTLTISSLQAEDVAVYYCQHSWEIPLTFGQGTKLEIK
